Data on one molecule can be found in patent publication US20220387572A1 (CRISPR THERAPEUTICS, published 2022).

The target in this experiment is T1, CD70 on human CD70+ renal cell carcinoma cell lines (A498, CD70 high; ACHN, CD70 low) (human, UniProt P32970 1-193).
T1 sequence (looked up): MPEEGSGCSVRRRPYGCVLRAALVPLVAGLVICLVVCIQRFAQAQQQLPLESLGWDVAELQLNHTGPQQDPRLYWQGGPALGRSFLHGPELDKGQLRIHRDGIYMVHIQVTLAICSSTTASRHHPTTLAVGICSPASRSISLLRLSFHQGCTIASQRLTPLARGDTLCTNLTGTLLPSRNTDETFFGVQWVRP
The experiment can be described thus: cell-based or functional assay.

B1: anti-CD70 CAR (CD70B scFv with 41BB), expressed on CTX130 cells (TRAC-/β2M-/CD70-/anti-CD70 CAR+ T cells) (other)
chain: QVQLVQSGAEVKKPGASVKVSCKASGYTFTNYGMNWVRQAPGQGLKWMGWINTYTGEPTYADAFKGRVTMTRDTSISTAYMELSRLRSDDTAVYYCARDYGDYGMDYWGQGTTVTVSSGGGGSGGGGSGGGGSGDIVMTQSPDSLAVSLGERATINCRASKSVSTSGYSFMHWYQQKPGQPPKLLIYLASNLESGVPDRFSGSGSGTDFTLTISSLQAEDVAVYYCQHSREVPWTFGQGTKVEIKSAAAFVPVFLPAKPTTTPAPRPPTPAPTIASQPLSLRPEACRPAAGGAVHTRGLDFACDIYIWAPLAGTCGVLLLSLVITLYCNHRNRKRGRKKLLYIFKQPFMRPVQTTQEEDGCSCRFPEEEEGGCELRVKFSRSADAPAYQQGQNQLYNELNLGRREEYDVLDKRRGRDPEMGGKPRRKNPQEGLYNELQKDKMAEAYSEIGMKGERRRGKGHDGLYQGLSTATKDTYDALHMQALPPR
For the molecule B1, the “cell killing (CellTiter-Glo), TRAC-/β2M-/CD70-/anti-CD70 CAR+ T cells on CD70+ A498 cells, 24 h, T cell:A498 ratios 1:1 and 0.5:1” value was above 90%; the “cell killing (CellTiter-Glo), TRAC-/β2M-/anti-CD70 CAR+ T cells (2xKO) on CD70+ A498 cells, 24 h, T cell:A498 ratios 1:1 and 0.5:1” value is below 90%.
